From publication PMC6757032 (Nature Communications, 2019)

Key:
[1] = biological target: T1, full-length rat syntaxin-1A (reconstituted in liposomes, S-liposomes) (rat, UniProt P32851 1-288); assay: SEC; S-liposomes (2.29 mM lipid) with full-length syntaxin-1A incubated 1 h with 1.2 µM αSNAP or 1.2 µM Munc18-1, then mixed with 1.2 µM of the other (at once or 12 h at 4 °C); 25 mM HEPES pH 7.4, 150 mM KCl, 1 mM TCEP; liposomes and bound proteins elute near the void volume; settings: both partners purified
T1 construct: syntaxin-1A, rat, full length; For the NMR experiments the protein was 2H-I-13CH3-labelled (isoleucine delta1 methyl groups); also called Syx WT; liposome-anchored syntaxin-1; source: E. coli BL21(DE3), purified (Ni-NTA, thrombin, Superdex 200 in DPC), reconstituted in liposomes

[2] = biological target: T1, full-length rat syntaxin-1A …; assay: liposome co-floatation; S-liposomes (0.75 mM lipid) with full-length syntaxin-1A pre-incubated 1 h at room temperature with 3 µM αSNAP (C-terminal His6-linker) or 3 µM Munc18-1, then 0-15 µM of the other protein (with or without 2.4 µM NSF) or 3 µM Munc18-1 at 4 °C for various times; Histodenz gradient, top layer by SDS-PAGE and Coomassie blue; settings: both partners purified

T1 sequence (P32851 whole entry): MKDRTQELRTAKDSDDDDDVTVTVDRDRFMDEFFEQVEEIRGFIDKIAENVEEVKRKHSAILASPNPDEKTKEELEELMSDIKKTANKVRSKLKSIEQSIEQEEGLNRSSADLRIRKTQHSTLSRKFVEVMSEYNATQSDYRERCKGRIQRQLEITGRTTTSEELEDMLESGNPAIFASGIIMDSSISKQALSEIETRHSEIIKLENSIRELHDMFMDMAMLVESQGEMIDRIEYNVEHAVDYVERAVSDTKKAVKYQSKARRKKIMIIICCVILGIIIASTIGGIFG

binding result [1]	binding result [2]	Binder
binds		full-length Bos Taurus αSNAP (natural protein, UniProt P81125 1-295, looked up, alpha-SNAP, Bos taurus, full length; also called WT αSNAP; source: E. coli BL21(DE3), purified (Glutathione Sepharose, thrombin, Superdex 75)) MDNSGKEAEAMALLAEAERKVKNSQSFFSGLFGGSSKIEEACEIYARAANMFKMAKNWSAAGSAFCQAAHVHLQLQSKHDAATCFVDAGNAFKKADPQEAINCLMRAIEIYTDMGRFTIAAKHHISIAEIYETELVDIEKAIAHYEQSADYYKGEESNSSANKCLLKVAGYAAQLEQYQKAIDIYEQVGTNAMDSPLLKYSAKDYFFKAALCHFCIDMLNAKLAVQKYEELFPAFSDSRECKRIKKLLEAHEEQNVDSYTEAVKEYDSISRLDQWLTTMLLRIKKTIQGDEEDLR
	binds	αSNAP with a C-terminal His6-linker (…) (natural protein, Bos Taurus, UniProt P81125 1-295, looked up, Used in all liposome co-floatation assays so that the syntaxin-1 and αSNAP bands separate on the gels; also called αSNAP containing a linker at the C terminus; source: E. coli BL21(DE3), purified as the unmodified construct) MDNSGKEAEAMALLAEAERKVKNSQSFFSGLFGGSSKIEEACEIYARAANMFKMAKNWSAAGSAFCQAAHVHLQLQSKHDAATCFVDAGNAFKKADPQEAINCLMRAIEIYTDMGRFTIAAKHHISIAEIYETELVDIEKAIAHYEQSADYYKGEESNSSANKCLLKVAGYAAQLEQYQKAIDIYEQVGTNAMDSPLLKYSAKDYFFKAALCHFCIDMLNAKLAVQKYEELFPAFSDSRECKRIKKLLEAHEEQNVDSYTEAVKEYDSISRLDQWLTTMLLRIKKTIQGDEEDLR
